Measured values from patent US20240287138A1 (Merck Sharp & Dohme, published 2024).
Numbered stars: 1 amine (or outer) side, 2 acyl side, 3 side chain; on linkers, the order of the positions; unused ones are H or OH. Bridge positions count the residues as written; N and C are the ends. Square brackets hold non-standard residues; d marks the D form. Primed or numbered codes have the meaning given here. 4Pal2F = (S)-2-Amino-3-(3-fluoropyridin-4-yl)propanoic acid, O=C([C@H](Cc1ccncc1F)N[*:1])[*:2]; bhcLeu = (1R,3S)-3-aminocyclopentane-1-carboxylic acid, O=C([C@@H]1CC[C@H](N[*:1])C1)[*:2]; AhpF3 = (S)-2-Amino-7,7,7-trifluoroheptanoic acid, O=C([C@H](CCCCC(F)(F)F)N[*:1])[*:2]; Trp(1-CH2CO) = O=C([C@H](Cc1cn(CC(=O)[*:3])c2ccccc12)N[*:1])[*:2]; Ala(2-carboxypyrimidin-5-yl) = N[C@@H](Cc1cnc(C(=O)O)nc1)C(=O)O; Trp(βS-Me,7-OMe) = COc1cccc2c([C@H](C)[C@H](N)C(=O)O)c[nH]c12; Phe(3R-OH) = O=C([C@@H](N[*:1])[C@H](O[*:3])c1ccccc1)[*:2]; Ala(1-bicyclo(1.1.1)pentyl) = N[C@@H](CC12CC(C1)C2)C(=O)O; NEtdA = N-ethyl-D-alanine, CCN([C@H](C)C(=O)[*:2])[*:1]; Phe(4-SO3H) = N[C@@H](Cc1ccc(S(=O)(=O)O)cc1)C(=O)O; Trp(7-Cl) = N[C@@H](Cc1c[nH]c2c(Cl)cccc12)C(=O)O; Phe(4-CONH2) = NC(=O)c1ccc(C[C@H](N)C(=O)O)cc1; Phe(4-COOH) = N[C@@H](Cc1ccc(C(=O)O)cc1)C(=O)O; Trp(7-aza) = N[C@@H](Cc1c[nH]c2ncccc12)C(=O)O; Pip(5R-OH) = O=C(O)[C@@H]1CC[C@@H](O)CN1; Val(3-OH) = CC(C)(O)[C@H](N)C(=O)O; Pip(4-aza) = O=C(O)[C@@H]1CNCCN1; 4Pal = N[C@@H](Cc1ccncc1)C(=O)O; NMeE = CN[C@@H](CCC(=O)O)C(=O)O; dHyp = O=C(O)[C@H]1C[C@H](O)CN1; Morpip6diMe = not defined here; dbhcLeu = not defined here; αMeS = C[C@](N)(CO)C(=O)O; Nle = CCCC[C@H](N)C(=O)O; Pip′ = not defined here; Sar = CNCC(=O)O

T1: TNFR1 on THP-1 Lucia NF-κB cells (UniProt P19438 30-455, limits assumed)
T1 sequence (looked up): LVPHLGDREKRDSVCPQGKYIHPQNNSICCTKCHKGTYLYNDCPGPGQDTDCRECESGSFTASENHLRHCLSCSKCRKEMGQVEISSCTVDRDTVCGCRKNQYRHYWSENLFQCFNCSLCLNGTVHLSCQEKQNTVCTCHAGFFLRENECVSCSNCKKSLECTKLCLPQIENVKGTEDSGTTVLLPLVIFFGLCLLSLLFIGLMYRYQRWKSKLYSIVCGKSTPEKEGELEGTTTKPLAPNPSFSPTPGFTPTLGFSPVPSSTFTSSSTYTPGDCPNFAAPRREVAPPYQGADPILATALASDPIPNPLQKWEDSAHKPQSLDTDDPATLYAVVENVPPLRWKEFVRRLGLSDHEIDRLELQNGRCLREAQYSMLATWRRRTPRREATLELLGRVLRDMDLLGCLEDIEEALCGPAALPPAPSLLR


Target: T1, TNFR1 on THP-1 Lucia NF-κB cells
Test: cell-based or functional assay

THP-1 IC50 [nM]	Binder
3.3	{CH2CO}-[Nle][4Pal][Phe(3R-OH)][Trp(7-aza)][NMeE]N[4Pal][Trp(7-Cl)][αMeS][Phe(4-COOH)]Y[Sar][Trp(βS-Me,7-OMe)]C-NH2 (thioether N-14; SMILES CCCC[C@@H]1NC(=O)CSC[C@@H](C(N)=O)NC(=O)[C@H]([C@@H](C)c2c[nH]c3c(OC)cccc23)NC(=O)CN(C)C(=O)[C@H](Cc2ccc(O)cc2)NC(=O)[C@H](Cc2ccc(C(=O)O)cc2)NC(=O)[C@](C)(CO)NC(=O)[C@H](Cc2c[nH]c3c(Cl)cccc23)NC(=O)[C@H](Cc2ccncc2)NC(=O)[C@H](CC(N)=O)NC(=O)[C@H](CCC(=O)O)N(C)C(=O)[C@H](Cc2c[nH]c3ncccc23)NC(=O)[C@H]([C@H](O)c2ccccc2)NC(=O)[C@H](Cc2ccncc2)NC1=O) [SEQ ID NO. 211]
0.8	cyclo([bhcLeu][Nle][4Pal][Pip(4-aza)]W[NMeE]N[4Pal2F][Trp(7-Cl)][αMeS][Phe(4-COOH)]Y[Sar][Trp(βS-Me,7-OMe)]) (SMILES CCCC[C@@H]1NC(=O)[C@@H]2CC[C@@H](C2)NC(=O)[C@H]([C@@H](C)c2c[nH]c3c(OC)cccc23)NC(=O)CN(C)C(=O)[C@H](Cc2ccc(O)cc2)NC(=O)[C@H](Cc2ccc(C(=O)O)cc2)NC(=O)[C@](C)(CO)NC(=O)[C@H](Cc2c[nH]c3c(Cl)cccc23)NC(=O)[C@H](Cc2ccncc2F)NC(=O)[C@H](CC(N)=O)NC(=O)[C@H](CCC(=O)O)N(C)C(=O)[C@H](Cc2c[nH]c3ccccc23)NC(=O)[C@@H]2CNCCN2C(=O)[C@H](Cc2ccncc2)NC1=O) [SEQ ID NO. 198]
1.9	{CH2CO}-[Nle][4Pal][Pip(5R-OH)]W[NEtdA]N[4Pal][Trp(7-Cl)][αMeS][Phe(4-CONH2)]Y[Sar][Trp(βS-Me,7-OMe)]C-NH2 (thioether N-14; SMILES CCCC[C@@H]1NC(=O)CSC[C@@H](C(N)=O)NC(=O)[C@H]([C@@H](C)c2c[nH]c3c(OC)cccc23)NC(=O)CN(C)C(=O)[C@H](Cc2ccc(O)cc2)NC(=O)[C@H](Cc2ccc(C(N)=O)cc2)NC(=O)[C@](C)(CO)NC(=O)[C@H](Cc2c[nH]c3c(Cl)cccc23)NC(=O)[C@H](Cc2ccncc2)NC(=O)[C@H](CC(N)=O)NC(=O)[C@@H](C)N(CC)C(=O)[C@H](Cc2c[nH]c3ccccc23)NC(=O)[C@@H]2CC[C@@H](O)CN2C(=O)[C@H](Cc2ccncc2)NC1=O) [SEQ ID NO. 186]
4.4	{CH2CO}-[Nle]H[Val(3-OH)][Trp(7-aza)][NMeE]N[4Pal][Trp(7-Cl)][αMeS][Phe(4-COOH)]Y[Sar][Trp(βS-Me,7-OMe)]C-NH2 (thioether N-14; SMILES CCCC[C@@H]1NC(=O)CSC[C@@H](C(N)=O)NC(=O)[C@H]([C@@H](C)c2c[nH]c3c(OC)cccc23)NC(=O)CN(C)C(=O)[C@H](Cc2ccc(O)cc2)NC(=O)[C@H](Cc2ccc(C(=O)O)cc2)NC(=O)[C@](C)(CO)NC(=O)[C@H](Cc2c[nH]c3c(Cl)cccc23)NC(=O)[C@H](Cc2ccncc2)NC(=O)[C@H](CC(N)=O)NC(=O)[C@H](CCC(=O)O)N(C)C(=O)[C@H](Cc2c[nH]c3ncccc23)NC(=O)[C@H](C(C)(C)O)NC(=O)[C@H](Cc2c[nH]cn2)NC1=O) [SEQ ID NO. 217]
1	cyclo([bhcLeu][AhpF3][4Pal][Pip(4-aza)]W[NMeE]N[4Pal][Trp(7-Cl)][αMeS][Phe(4-COOH)]Y[Sar][Trp(βS-Me,7-OMe)]) (SMILES COc1cccc2c([C@H](C)[C@@H]3NC(=O)CN(C)C(=O)[C@H](Cc4ccc(O)cc4)NC(=O)[C@H](Cc4ccc(C(=O)O)cc4)NC(=O)[C@](C)(CO)NC(=O)[C@H](Cc4c[nH]c5c(Cl)cccc45)NC(=O)[C@H](Cc4ccncc4)NC(=O)[C@H](CC(N)=O)NC(=O)[C@H](CCC(=O)O)N(C)C(=O)[C@H](Cc4c[nH]c5ccccc45)NC(=O)[C@@H]4CNCCN4C(=O)[C@H](Cc4ccncc4)NC(=O)[C@H](CCCCC(F)(F)F)NC(=O)[C@@H]4CC[C@@H](C4)NC3=O)c[nH]c12) [SEQ ID NO. 213]
1.6	cyclo([bhcLeu][Nle][4Pal][Pip(5R-OH)]W[dHyp]N[Phe(4-COOH)][Trp(7-Cl)][αMeS][Phe(4-CONH2)][Ala(2-carboxypyrimidin-5-yl)][Sar][Trp(βS-Me,7-OMe)]) (SMILES CCCC[C@@H]1NC(=O)[C@@H]2CC[C@@H](C2)NC(=O)[C@H]([C@@H](C)c2c[nH]c3c(OC)cccc23)NC(=O)CN(C)C(=O)[C@H](Cc2cnc(C(=O)O)nc2)NC(=O)[C@H](Cc2ccc(C(N)=O)cc2)NC(=O)[C@](C)(CO)NC(=O)[C@H](Cc2c[nH]c3c(Cl)cccc23)NC(=O)[C@H](Cc2ccc(C(=O)O)cc2)NC(=O)[C@H](CC(N)=O)NC(=O)[C@H]2C[C@H](O)CN2C(=O)[C@H](Cc2c[nH]c3ccccc23)NC(=O)[C@@H]2CC[C@@H](O)CN2C(=O)[C@H](Cc2ccncc2)NC1=O) [SEQ ID NO. 191]
1.6	cyclo([bhcLeu][Ala(1-bicyclo(1.1.1)pentyl)][4Pal][Pip(4-aza)]W[NMeE]N[4Pal][Trp(7-Cl)][αMeS][Phe(4-COOH)]Y[Sar][Trp(βS-Me,7-OMe)]) (SMILES COc1cccc2c([C@H](C)[C@@H]3NC(=O)CN(C)C(=O)[C@H](Cc4ccc(O)cc4)NC(=O)[C@H](Cc4ccc(C(=O)O)cc4)NC(=O)[C@](C)(CO)NC(=O)[C@H](Cc4c[nH]c5c(Cl)cccc45)NC(=O)[C@H](Cc4ccncc4)NC(=O)[C@H](CC(N)=O)NC(=O)[C@H](CCC(=O)O)N(C)C(=O)[C@H](Cc4c[nH]c5ccccc45)NC(=O)[C@@H]4CNCCN4C(=O)[C@H](Cc4ccncc4)NC(=O)[C@H](CC45CC(C4)C5)NC(=O)[C@@H]4CC[C@@H](C4)NC3=O)c[nH]c12) [SEQ ID NO. 190]
1	cyclo([bhcLeu][Nle][4Pal][Pip(4-aza)]W[NMeE]N[4Pal][Trp(7-Cl)][αMeS][Phe(4-SO3H)]Y[Sar][Trp(βS-Me,7-OMe)]) (SMILES CCCC[C@@H]1NC(=O)[C@@H]2CC[C@@H](C2)NC(=O)[C@H]([C@@H](C)c2c[nH]c3c(OC)cccc23)NC(=O)CN(C)C(=O)[C@H](Cc2ccc(O)cc2)NC(=O)[C@H](Cc2ccc(S(=O)(=O)O)cc2)NC(=O)[C@](C)(CO)NC(=O)[C@H](Cc2c[nH]c3c(Cl)cccc23)NC(=O)[C@H](Cc2ccncc2)NC(=O)[C@H](CC(N)=O)NC(=O)[C@H](CCC(=O)O)N(C)C(=O)[C@H](Cc2c[nH]c3ccccc23)NC(=O)[C@@H]2CNCCN2C(=O)[C@H](Cc2ccncc2)NC1=O) [SEQ ID NO. 199]
3.7	cyclo([dbhcLeu][Nle][4Pal][Morpip6diMe]W[NMeE]N[4Pal][Trp(7-Cl)][αMeS][Phe(4-CONH2)]Y[Sar][Trp(βS-Me,7-OMe)]) (reading uncertain; also: printed as cyclo(dbhcLeu-Nle-4Pal-Morpip6diMe-W-NMeE-N-4Pal-Trp7Cl-aMeS-Phe4CONH2-Y-Sar-SbMeW7OMe)) [SEQ ID NO. 214]
4	{CH2CO}-[Nle][4Pal][Pip′]W[NMeE]N[4Pal][Trp(7-Cl)][αMeS][Phe(4-COOH)]Y[Sar][SbMeW7Me]C-NH2 (thioether N-14) [SEQ ID NO. 208]
0.7	cyclo([bhcLeu][Nle][4Pal][Pip(4-aza)][Trp(1-CH2CO)][NMeE]N[4Pal][Trp(7-Cl)][αMeS][Phe(4-COOH)]Y[Sar][Trp(βS-Me,7-OMe)]) (SMILES CCCC[C@@H]1NC(=O)[C@@H]2CC[C@@H](C2)NC(=O)[C@H]([C@@H](C)c2c[nH]c3c(OC)cccc23)NC(=O)CN(C)C(=O)[C@H](Cc2ccc(O)cc2)NC(=O)[C@H](Cc2ccc(C(=O)O)cc2)NC(=O)[C@](C)(CO)NC(=O)[C@H](Cc2c[nH]c3c(Cl)cccc23)NC(=O)[C@H](Cc2ccncc2)NC(=O)[C@H](CC(N)=O)NC(=O)[C@H](CCC(=O)O)N(C)C(=O)[C@H](Cc2cn(CC(=O)O)c3ccccc23)NC(=O)[C@@H]2CNCCN2C(=O)[C@H](Cc2ccncc2)NC1=O) [SEQ ID NO. 197]
0.9	cyclo([bhcLeu][Nle][4Pal2F][Pip(4-aza)]W[NMeE]N[4Pal][Trp(7-Cl)][αMeS][Phe(4-COOH)]Y[Sar][Trp(βS-Me,7-OMe)]) (SMILES CCCC[C@@H]1NC(=O)[C@@H]2CC[C@@H](C2)NC(=O)[C@H]([C@@H](C)c2c[nH]c3c(OC)cccc23)NC(=O)CN(C)C(=O)[C@H](Cc2ccc(O)cc2)NC(=O)[C@H](Cc2ccc(C(=O)O)cc2)NC(=O)[C@](C)(CO)NC(=O)[C@H](Cc2c[nH]c3c(Cl)cccc23)NC(=O)[C@H](Cc2ccncc2)NC(=O)[C@H](CC(N)=O)NC(=O)[C@H](CCC(=O)O)N(C)C(=O)[C@H](Cc2c[nH]c3ccccc23)NC(=O)[C@@H]2CNCCN2C(=O)[C@H](Cc2ccncc2F)NC1=O) [SEQ ID NO. 201]
